# Test results published in patent publication US20240409619A1 (WISTAR INSTITUTE OF ANATOMY AND BIOLOGY, published 2024).
# B1: DMAb 2381_FcWT (antibody, V domains shown)
# VH: QMQLVQSGPEVKKPGTSVKVSCKASGFTFTSSAVQWVRQARGQRLEWIGWIAVGSGNTNYAQKFQERVSITRDMSTSTAYMELSSLRSEDTAVYYCAAPYCSRTSCHDAFDIWGQGTKVTVSS
# VL: EVVLTQSPGTLSLSPGERATLSCRASQSVSSSYLAWYQQKPGQAPRLLIYGASSRATGIPDRFSGSGSGTDFTLTISRLEPEDFAVYHCQHFGSSSQWTFGQGTKVEIKR
# Biological target: SARS-COV-2 spike protein, isolate USA-WA1/2020, on pseudotyped virus (SARS-COV-2, UniProt P0DTC2 14-1273)
# Assay: cell-based or functional assay
binder,measurement,value
B1,neutralization potency (IC50) of serum against pseudotyped virus,< 5 ng/mL
